# Measured values as given in patent publication US20100196390A1 (RINAT NEUROSCIENCE, published 2010).
# Where a chain is given by its changes, count along the chain named.
# B1: 5-B2 (Fab, V domains shown)
# VH: QVQLVQSGAEVKKPGASVKVSCKASGYTFTNYVILWVRQAPGQGLEWMGYINPYNDGTKYNEKFKGRVTMTRDTSTSTVYMELSSLRSEDTAVYYCARLLKYRRFSYYAIDYWGQGTTVTVSS
# VL: DIQMTQSPSSLSASVGDRVTITCRASENVYSNLAWYQQKPGKAPKLLIYAASNLQSGVPSRFSGSGSGTDFTFTISSLQPEDIATYYCQHFDYSPFTFGQGTKLEIK
# notes: Fab
# B2: 11-D7 (Fab, V domains shown)
# VH: B1 VH with V33D, L35I, D56G, G57R, T58R, K59E, S106R
# VL: B1 VL with S31R, D92W, Y93G
# notes: Fab
# B3: 10-F12 (Fab, V domains shown)
# VH: B1 VH with V33D, L35I, D56G, G57R, T58R, K59E, S106R
# VL: B1 VL with S31R, D92W, Y93G
# notes: Fab
# B4: 8-D2 (Fab, V domains shown)
# VH: B1 VH with I110A
# VL: B1 VL with H90N, D92W
# notes: Fab
# B5: 7-B1 (Fab, V domains shown)
# VH: B1 VH with S106R
# VL: B1 VL with D92W, T97K
# notes: Fab
# B6: 5-E2 (Fab, V domains shown)
# VH: B1 VH with S106K
# VL: B1 VL with D92W
# notes: Fab
# B7: 6-B11 (Fab, V domains shown)
# VH: B1 VH
# VL: B1 VL with D92W, Y93Q
# notes: Fab
# B8: 10-A5 (Fab, V domains shown)
# VH: B1 VH with V33D, L35I, S106R
# VL: B1 VL with N28T, D92W, Y93G
# notes: Fab
# B9: 10-G3 (Fab, V domains shown)
# VH: B1 VH with V33D, L35I, D56E, G57R, K59E, S106R
# VL: B1 VL with S31R, A50I, D92V
# notes: Fab
# B10: 9-G8 (Fab, V domains shown)
# VH: B1 VH
# VL: B1 VL with D92W, T97W
# notes: Fab
# B11: 5-D1 (Fab, V domains shown)
# VH: B1 VH with S106R, Y112V
# VL: B1 VL with H90N, D92W
# notes: Fab
# B12: 9-D11 (Fab, V domains shown)
# VH: B1 VH with S106K
# VL: B1 VL with D92W, Y93M
# notes: Fab
# B13: 7-B8 (Fab, V domains shown)
# VH: B1 VH with S106R
# VL: B1 VL with D92W, F96C
# notes: Fab
# B14: 8-G2 (Fab, V domains shown)
# VH: B1 VH with S106R, Y107F
# VL: B1 VL with D92G, T97I
# notes: Fab
# B15: 8-H7 (Fab, V domains shown)
# VH: B1 VH with Y107F
# VL: B1 VL with D92V
# notes: Fab
# B16: 5-F1 (Fab, V domains shown)
# VH: B1 VH with S106K
# VL: B1 VL with D92W, T97L
# notes: Fab
# B17: 6-C10 (Fab, V domains shown)
# VH: B1 VH with S106R
# VL: B1 VL with D92W, P95W
# notes: Fab
# B18: 9-D6 (Fab, V domains shown)
# VH: B1 VH with Y112V
# VL: B1 VL with D92S
# notes: Fab
# B19: 6-H12 (Fab, V domains shown)
# VH: B1 VH
# VL: B1 VL with D92W, Y93H
# notes: Fab
# B20: 10-F10 (Fab, V domains shown)
# VH: B1 VH with V33D, L35I, T58R, Y60E, S106R
# VL: B1 VL with S31L, D92W, Y93G
# notes: Fab
# B21: 11-C6 (Fab, V domains shown)
# VH: B1 VH with V33D, L35I, D56G, G57R, T58R, K59E, S106R
# VL: B1 VL with E27S, F71Y, D92W, Y93G
# notes: Fab
# B22: 11-F9 (Fab, V domains shown)
# VH: B1 VH with V33D, L35I, T58R, Y60E, S106R
# VL: B1 VL with S31R, D92W
# notes: Fab
# B23: 6-B4 (Fab, V domains shown)
# VH: B1 VH with S106Q
# VL: B1 VL with D92W
# notes: Fab
# B24: 10-B9 (Fab, V domains shown)
# VH: B1 VH with V33D, L35I, T58R, Y60E, S106R
# VL: B1 VL with N28P, D92W, Y93G
# notes: Fab
# B25: 8-B2 (Fab, V domains shown)
# VH: B1 VH with S106R
# VL: B1 VL with D92Y
# notes: Fab
# B26: 6-E10 (Fab, V domains shown)
# VH: B1 VH with R104P
# VL: B1 VL with D92S, Y93L
# notes: Fab
# B27: 10-C10 (Fab, V domains shown)
# VH: B1 VH with V33D, L35I, D56G, G57R, T58R, K59E, S106R
# VL: B1 VL with S31R, D92V
# notes: Fab
# B28: 8-C8 (Fab, V domains shown)
# VH: B1 VH with S106R
# VL: B1 VL with D92W, T97G
# notes: Fab
# B29: 7-C11 (Fab, V domains shown)
# VH: B1 VH
# VL: B1 VL with D92K
# notes: Fab
# B30: 11-D8 (Fab, V domains shown)
# VH: B1 VH with V33D, L35I, D56G, G57R, T58R, K59E, S106R
# VL: B1 VL with E27T, D92W, Y93G
# notes: Fab
# B31: 10-A7 (Fab, V domains shown)
# VH: B1 VH with V33D, L35I, D56G, G57R, T58R, K59E, S106R
# VL: B1 VL with N32H, D92W
# notes: Fab
# B32: 11-C7 (Fab, V domains shown)
# VH: B1 VH with V33D, L35I, D56R, G57R, T58I, K59E, S106R
# VL: B1 VL with N32H, D92W, Y93G
# notes: Fab
# B33: 10-E10 (Fab, V domains shown)
# VH: B1 VH with V33D, L35I, T58R, Y60E, S106R
# VL: B1 VL with D92W, Y93G
# notes: Fab
# B34: 5-G4 (Fab, V domains shown)
# VH: B1 VH
# VL: B1 VL with D92W, Y93G
# notes: Fab
# B35: 10-F7 (Fab, V domains shown)
# VH: B1 VH with V33D, L35I, D56G, G57R, T58R, K59E, S106R
# VL: B1 VL with N32H, D92V
# notes: Fab
# B36: 11-B11 (Fab, V domains shown)
# VH: B1 VH with V33D, L35I, D56G, G57R, T58R, K59E, S106R
# VL: B1 VL with N28P, D92W, Y93G
# notes: Fab
# B37: 7-B9 (Fab, V domains shown)
# VH: B1 VH with Y112V
# VL: B1 VL with D92W, F96W
# notes: Fab
# B38: 6-A6 (Fab, V domains shown)
# VH: B1 VH with S106K
# VL: B1 VL with D92W, T97V
# notes: Fab
# B39: 10-D11 (Fab, V domains shown)
# VH: B1 VH with V33D, L35I, D56G, G57R, T58R, K59E, S106R
# VL: B1 VL with S31R, D92W
# notes: Fab
# B40: 10-G2 (Fab, V domains shown)
# VH: B1 VH with V33D, L35I, D56G, G57R, T58R, K59E, S106R
# VL: B1 VL with N28A, D92W, Y93G
# notes: Fab
# B41: 5-B8 (Fab, V domains shown)
# VH: B1 VH with S106R
# VL: B1 VL with H90Q, D92W
# notes: Fab
# B42: 9-D9 (Fab, V domains shown)
# VH: B1 VH with S106R
# VL: B1 VL with D92W, T97A
# notes: Fab
# B43: 7-F1 (Fab, V domains shown)
# VH: B1 VH with S106R
# VL: B1 VL with H90N, D92W
# notes: Fab
# B44: 7-D1 (Fab, V domains shown)
# VH: B1 VH with Y112V
# VL: B1 VL with D92W, S94L
# notes: Fab
# B45: 11-B9 (Fab, V domains shown)
# VH: B1 VH with V33D, L35I, D56G, G57R, T58R, K59E, S106R
# VL: B1 VL with E27T, S31R, D92W, Y93G
# notes: Fab
# B46: 6-D12 (Fab, V domains shown)
# VH: B1 VH with S106R
# VL: B1 VL with D92W, Y93A
# notes: Fab
# B47: 10-C7 (Fab, V domains shown)
# VH: B1 VH with V33D, L35I, Y50H, D56G, G57R, T58R, K59E, S106R
# VL: B1 VL with N28S, D92V
# notes: Fab
# Molecular target: TrkB (Homo sapiens (Human), UniProt Q16620 32-430)
# Sequence (Q16620 32-430 limits assumed): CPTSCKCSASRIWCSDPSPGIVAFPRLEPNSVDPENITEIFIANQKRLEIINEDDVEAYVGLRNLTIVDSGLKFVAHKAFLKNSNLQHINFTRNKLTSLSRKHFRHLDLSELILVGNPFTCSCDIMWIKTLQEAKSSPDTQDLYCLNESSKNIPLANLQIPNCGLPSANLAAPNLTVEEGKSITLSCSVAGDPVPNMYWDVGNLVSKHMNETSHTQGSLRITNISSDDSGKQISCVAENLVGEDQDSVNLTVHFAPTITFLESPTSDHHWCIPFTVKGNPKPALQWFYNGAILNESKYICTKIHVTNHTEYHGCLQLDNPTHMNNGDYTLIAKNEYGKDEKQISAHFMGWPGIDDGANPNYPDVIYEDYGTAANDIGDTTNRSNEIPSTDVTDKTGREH
# Assay: koff of Fab at 25 C; T1/2=Log2/koff
# Outline: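 Monovalent Fab fragments were tested at 25° C by surface plasmon resonance on a Biacore instrument, against TrkB extracellular-domain monomer amine-coupled to the chip at low capacity. Fabs were injected low to high as a 3-fold serial dilution from 100 nM for 84 sec, with a 10 minute dissociation after the top sample. The dissociation half-life was calculated from koff, which was fitted to a Langmuir binding model in BIAevaluation. The formula used was T1/2 = Log 2/koff.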
row,T1/2 [min],Binder
1,1.55,B1
2,4.1,B2
3,5.7,B3
4,1.81,B4
5,0.81,B5
6,1.66,B6
7,1.44,B7
8,1,B8
9,4.8,B9
10,1.13,B10
11,1.61,B11
12,1.55,B12
13,1.18,B13
14,1.88,B14
15,1.18,B15
16,1.6,B16
17,1.55,B17
18,1.45,B18
19,1.54,B19
20,4.1,B20
21,10.8,B21
22,6.2,B22
23,1.55,B23
24,4,B24

row,T1/2 [min],Binder
1,1.46,B25
2,1.3,B26
3,4.3,B27
4,1.78,B28
5,1.07,B29
6,2.5,B30
7,3,B31
8,4.9,B32
9,2.7,B33
10,1.35,B34
11,4.9,B35
12,5.5,B36
13,1.79,B37
14,1.59,B38
15,4.2,B39
16,5.2,B40
17,1.82,B41
18,1.54,B42
19,0.54,B43
20,0.7,B44
21,4.9,B45
22,1.7,B46
23,4.1,B47
